Experimental data taken from publication PMC10358891, “The AMP deaminase of the mollusk Helix pomatia is an unexpected member of the adenosine deaminase-related growth factor (ADGF) family” (PLOS ONE, 2023).

Substrate: Nc1ncnc2c1ncn2[C@@H]1O[C@H](COP(=O)(O)O)[C@@H](O)[C@H]1O
Assay: spectrophotometric deamination assay, initial rates, Lineweaver-Burk
Format: biochemical, Helix pomatia
Details: 20 mM Tris-HCl pH 7.5, 50 mM NaCl, 25 °C (general assay buffer)
Description: spectrophotometric deamination assay, initial rates, Lineweaver-Burk on […]

B1: HPAMPD (recombinant H. pomatia AMP deaminase) (Helix pomatia) (protein)
chain: LAVRFPTMDEYTNAREELIGSEQYLRVGGSINLNNKEKKLNQFILREKRAIIENSRLNKTQYIPAVSFFLSKSQMESTPIFKIIKDMPKGAALHLHDTASARIDWIVSNATYRDHVYMCMDQDNFVRLTVSGTGPPANSGCEWKLVETERANSGDIAAFDHWLKSNISLLTTDPLVTYPSLDKVWGRFDKHFSQLRGIIYHTPIRRDYYRQILEEFRSDNVQYVEVRSSLSGYYDLDGTVHDPEYGLQLYKAVTEEFVRTYPDFSGAKIIKSTARVKPNTDIFNDVKLSMDLYKRYPGFFLGFDLVAQEDPNTSLLGYIDSLLYPSRQNPPVSLPYYFHAGETNWQGTEVDYNLVDALLLNATRIGHGFALIKHPRVIELVKSRGVAVEVNPVSNQLLGLVKDLRNHAAAPLLAQNVPVVISSDDPGVWEALPMSHDMYVAFMDLVGEDAGLDVLKQLVWNSIQYSSMNATEKKTALKLLQAKWNNFINDSLIKWKLTNKKVI
notes: secreted from Pichia pastoris with alpha-factor signal; C-terminal His10; Endo Hf treated; 58676 Da; ORF 536 residues; homodimer predicted
  Km: 25 µM
  kcat: 170 per second
